In this experiment the target is FAIM2 (Fas-apoptotic inhibitory molecule 2) (UniProt Q8K097). The experiment can be described thus: FAIM2 immunoprecipitation, αA-crystallin immunoblot. Conditions: reference: wild type; sites T148. On the technique in general: In western blotting, separated proteins are transferred to a membrane and probed.

As for “αA-crystallin (HSPB4/CRYAA) (from UniProt P02489) T148A”, the “binding against the reference” value was “weaker”.
